Protein stability index data for 94 variants are collected here from the supplement of paper PMC10567573.

B1: PLD5 (parent)
chain: WIVDKQHVYIGSAGLDWQSLGQMK
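Also: lentivirally expressed fusions sorted by FACS into six bins by GFP to DsRed ratio, PSI derived from sequencing read proportions per bin multiplied by bin number.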

The series covers variants of B1. The experiment in a line: protein stability index of a GFP-peptide fusion (GPS, HEK-293T) (PSI 1-6); higher = more stable. The following applies: c terminus: a fixed tail appended.
Turning to WIVDKQHVYIWSAGLDWQSLGQMK [G11W], the protein stability index is 2.27.

Regarding WIVDKQHVYINSAGLDWQSLGQMK [G11N], the protein stability index worked out at 2.32.

Turning to WIVDKQHVYISSAGLDWQSLGQMK [G11S], the protein stability index is 2.22.

Take WIVDKQHVYIVSAGLDWQSLGQMK [G11V]: the protein stability index was found to be 2.02.

WIVDKQHVYIPSAGLDWQSLGQMK [G11P]: the protein stability index turned out to be 2.12.

On to WIVDKQHVYIYSAGLDWQSLGQMK [G11Y], for which the protein stability index turned out to be 3.22.

Turning to WIVDKQHVYIRSAGLDWQSLGQMK [G11R], the protein stability index amounted to 2.02.

WIVDKQHVYITSAGLDWQSLGQMK [G11T]: the protein stability index stood at 1.71.

As to WIVDKQHVYIQSAGLDWQSLGQMK [G11Q], the protein stability index is 1.53.

On to WIVDKQHVYIMSAGLDWQSLGQMK [G11M], for which the protein stability index amounted to 2.25.

With WIVDKQHVYILSAGLDWQSLGQMK [G11L], the protein stability index stood at 2.88.

As for WIVDKQHVYIGSAGGDWQSLGQMK [L15G], the protein stability index came out at 2.2.

Regarding WIVDKQHVYIGSAGHDWQSLGQMK [L15H], the protein stability index worked out at 1.67.

Consider WIVDKQHVYIGSAGEDWQSLGQMK [L15E], for which the protein stability index was determined as 2.13.

Regarding WIVDKQHVYIGSAGTDWQSLGQMK [L15T], the protein stability index is 2.

As for WIVDKQHVYIGSAGFDWQSLGQMK [L15F], the protein stability index stood at 1.14.

With WIVDKQHVYIGSAGWDWQSLGQMK [L15W], the protein stability index turned out to be 1.51.

Take WIVDKQHVYIGSAGRDWQSLGQMK [L15R]: the protein stability index was found to be 1.55.

As for WIVDKQHVYIGSAGCDWQSLGQMK [L15C], the protein stability index worked out at 1.47.

Consider WIVDKQHVYIGSAGVDWQSLGQMK [L15V], for which the protein stability index worked out at 1.54.

For the variant WIVDKQHVYIGSAGSDWQSLGQMK [L15S], the protein stability index was found to be 1.7.

As for WIVDKQHVYIGSAGADWQSLGQMK [L15A], the protein stability index was determined as 1.8.

WIVDKQHVYIGSAGIDWQSLGQMK [L15I]: the protein stability index turned out to be 1.31.

As for WIVDKQHVYIGSAGDDWQSLGQMK [L15D], the protein stability index is 1.92.

For WIVDKQHVYIGSAGKDWQSLGQMK [L15K], the protein stability index is 2.02.

Turning to WIVDKQHVYIGSAGYDWQSLGQMK [L15Y], the protein stability index was determined as 1.67.

Regarding WIVDKQHVYIGSAGPDWQSLGQMK [L15P], the protein stability index is 1.99.

Regarding WIVDKQHVYIGSAGQDWQSLGQMK [L15Q], the protein stability index worked out at 1.47.

In the case of WIVDKQHVYIGSAGNDWQSLGQMK [L15N], the protein stability index stood at 2.01.

Turning to WIVDKQHVYIGSAGMDWQSLGQMK [L15M], the protein stability index amounted to 1.34.

With WIVDKQHVYIGSAGLCWQSLGQMK [D16C], the protein stability index was 2.39.

As for WIVDKQHVYIGSAGLAWQSLGQMK [D16A], the protein stability index is 3.8.

WIVDKQHVYIGSAGLMWQSLGQMK [D16M]: the protein stability index worked out at 2.83.

As to WIVDKQHVYIGSAGLNWQSLGQMK [D16N], the protein stability index stood at 2.33.

For WIVDKQHVYIGSAGLGWQSLGQMK [D16G], the protein stability index was 2.06.

Turning to WIVDKQHVYIGSAGLPWQSLGQMK [D16P], the protein stability index turned out to be 1.79.

Turning to WIVDKQHVYIGSAGLEWQSLGQMK [D16E], the protein stability index is 2.32.

Regarding WIVDKQHVYIGSAGLYWQSLGQMK [D16Y], the protein stability index was found to be 2.52.

Turning to WIVDKQHVYIGSAGLWWQSLGQMK [D16W], the protein stability index is 3.03.

For WIVDKQHVYIGSAGLIWQSLGQMK [D16I], the protein stability index is 1.94.

Regarding WIVDKQHVYIGSAGLLWQSLGQMK [D16L], the protein stability index was 2.44.

In the case of WIVDKQHVYIGSAGLRWQSLGQMK [D16R], the protein stability index amounted to 1.4.

As to WIVDKQHVYIGSAGLHWQSLGQMK [D16H], the protein stability index is 1.44.

On to WIVDKQHVYIGSAGLKWQSLGQMK [D16K], for which the protein stability index came to 1.68.

With WIVDKQHVYIGSAGLQWQSLGQMK [D16Q], the protein stability index was 1.16.

As for WIVDKQHVYIGSAGLFWQSLGQMK [D16F], the protein stability index worked out at 2.16.

Turning to WIVDKQHVYIGSAGLSWQSLGQMK [D16S], the protein stability index amounted to 2.26.

On to WIVDKQHVYIGSAGLTWQSLGQMK [D16T], for which the protein stability index stood at 3.02.

For WIVDKQHVYIGSAGLDGQSLGQMK [W17G], the protein stability index amounted to 2.17.

Turning to WIVDKQHVYIGSAGLDSQSLGQMK [W17S], the protein stability index is 2.36.

For the variant WIVDKQHVYIGSAGLDKQSLGQMK [W17K], the protein stability index came out at 1.72.

For the variant WIVDKQHVYIGSAGLDHQSLGQMK [W17H], the protein stability index is 2.35.

Regarding WIVDKQHVYIGSAGLDFQSLGQMK [W17F], the protein stability index stood at 1.91.

Consider WIVDKQHVYIGSAGLDDQSLGQMK [W17D], for which the protein stability index amounted to 1.94.

In the case of WIVDKQHVYIGSAGLDAQSLGQMK [W17A], the protein stability index is 1.97.

With WIVDKQHVYIGSAGLDQQSLGQMK [W17Q], the protein stability index came out at 2.09.

As to WIVDKQHVYIGSAGLDLQSLGQMK [W17L], the protein stability index stood at 1.64.

As for WIVDKQHVYIGSAGLDMQSLGQMK [W17M], the protein stability index was 1.38.

For the variant WIVDKQHVYIGSAGLDPQSLGQMK [W17P], the protein stability index turned out to be 1.64.

As to WIVDKQHVYIGSAGLDTQSLGQMK [W17T], the protein stability index came out at 1.9.

For the variant WIVDKQHVYIGSAGLDCQSLGQMK [W17C], the protein stability index is 1.73.

For WIVDKQHVYIGSAGLDIQSLGQMK [W17I], the protein stability index is 1.63.

With WIVDKQHVYIGSAGLDYQSLGQMK [W17Y], the protein stability index is 1.89.

Take WIVDKQHVYIGSAGLDVQSLGQMK [W17V]: the protein stability index was 2.24.

Take WIVDKQHVYIGSAGLDEQSLGQMK [W17E]: the protein stability index was determined as 2.1.

For WIVDKQHVYIGSAGLDRQSLGQMK [W17R], the protein stability index is 1.9.

Regarding WIVDKQHVYIGSAGLDNQSLGQMK [W17N], the protein stability index was 2.17.

As for WIVDKQHVYIGSAYLDWQSLGQMK [G14Y], the protein stability index stood at 1.79.

As for WIVDKQHVYIGSAVLDWQSLGQMK [G14V], the protein stability index was determined as 2.6.

Take WIVDKQHVYIGSAPLDWQSLGQMK [G14P]: the protein stability index came to 2.23.

On to WIVDKQHVYIGSANLDWQSLGQMK [G14N], for which the protein stability index turned out to be 2.15.

Take WIVDKQHVYIGSAMLDWQSLGQMK [G14M]: the protein stability index stood at 1.63.

As to WIVDKQHVYIGSAALDWQSLGQMK [G14A], the protein stability index was found to be 1.51.

As for WIVDKQHVYIGSAFLDWQSLGQMK [G14F], the protein stability index was 2.02.

Regarding WIVDKQHVYIGSARLDWQSLGQMK [G14R], the protein stability index came to 2.29.

Take WIVDKQHVYIGSAKLDWQSLGQMK [G14K]: the protein stability index was 2.85.

With WIVDKQHVYIGSADLDWQSLGQMK [G14D], the protein stability index was 2.12.

In the case of WIVDKQHVYIGSAQLDWQSLGQMK [G14Q], the protein stability index came out at 1.64.

In the case of WIVDKQHVYIGSAILDWQSLGQMK [G14I], the protein stability index was 2.97.

In the case of WIVDKQHVYIGSATLDWQSLGQMK [G14T], the protein stability index was 1.25.

With WIVDKQHVYIGSACLDWQSLGQMK [G14C], the protein stability index amounted to 2.19.

Consider WIVDKQHVYIGSASLDWQSLGQMK [G14S], for which the protein stability index was 2.16.

As to WIVDKQHVYIGSAELDWQSLGQMK [G14E], the protein stability index stood at 1.54.

Take WIVDKQHVYIGSALLDWQSLGQMK [G14L]: the protein stability index came to 1.64.

Turning to WIVDKQHVYIGSAHLDWQSLGQMK [G14H], the protein stability index was 2.29.

As for WIVDKQHVYIGSAWLDWQSLGQMK [G14W], the protein stability index was 3.18.

As for WIVDKQHVYIGSFGLDWQSLGQMK [A13F], the protein stability index was 2.5.

As to WIVDKQHVYIGSVGLDWQSLGQMK [A13V], the protein stability index came out at 3.68.

With WIVDKQHVYIGSMGLDWQSLGQMK [A13M], the protein stability index came to 1.9.

As to WIVDKQHVYIGSDGLDWQSLGQMK [A13D], the protein stability index stood at 1.33.

Turning to WIVDKQHVYIGSYGLDWQSLGQMK [A13Y], the protein stability index was determined as 1.98.

On to WIVDKQHVYIGSLGLDWQSLGQMK [A13L], for which the protein stability index is 2.44.

With WIVDKQHVYIGSTGLDWQSLGQMK [A13T], the protein stability index was 2.02.

For the variant WIVDKQHVYIGSNGLDWQSLGQMK [A13N], the protein stability index is 2.11.
